Laboratory results as given in PMC3715500.

Biological target: Rac-GFP (UniProt P63000)
Assay: FRET or BRET; FLIM-FRET (donor lifetime, time-gated fast-FLIM prototype, five gates of 2.25 ns, up to 1 FLIM image per s) in living 3T3 cells co-transfected with donor Rac-GFP and acceptor PBD-mCherry or mCherry alone; analysed by mfD, polar approach and moments method

Chain of PBD-mCherry (domain or fragment) (Q13153 2-545): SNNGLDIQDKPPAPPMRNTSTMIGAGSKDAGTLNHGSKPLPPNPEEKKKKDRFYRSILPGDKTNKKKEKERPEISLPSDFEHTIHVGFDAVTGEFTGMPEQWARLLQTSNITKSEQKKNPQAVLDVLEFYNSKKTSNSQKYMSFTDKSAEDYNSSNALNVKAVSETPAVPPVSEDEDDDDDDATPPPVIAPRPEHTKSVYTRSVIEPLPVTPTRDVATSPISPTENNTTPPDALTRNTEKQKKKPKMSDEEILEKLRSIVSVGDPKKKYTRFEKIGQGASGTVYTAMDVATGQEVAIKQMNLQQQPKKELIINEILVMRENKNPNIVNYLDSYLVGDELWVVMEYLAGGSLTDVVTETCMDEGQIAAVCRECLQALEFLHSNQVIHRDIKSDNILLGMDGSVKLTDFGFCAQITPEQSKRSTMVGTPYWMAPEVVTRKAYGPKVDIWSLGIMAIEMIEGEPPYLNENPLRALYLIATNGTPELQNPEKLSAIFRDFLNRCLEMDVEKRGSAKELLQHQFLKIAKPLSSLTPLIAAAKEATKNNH

A mean donor lifetime <τ> (population of cells, n = 10) of 2.37 ns, a mean donor lifetime <τ> (single cell, corrected) of 2.21 and a minimal fraction of interacting donor mfD (representative cell) of 0.19 were found for PBD-mCherry (domain or fragment) in this work. The non-corrected average donor lifetime (representative cell) was 2.3 ns.
